# Experimental data taken from PMC7619190.
# Experiments:
# [1] = target: human SRC SH2 domain (Gln147-Lys252) C188A (human) (UniProt P12931); experiment: ITC; peptide (400 uM) titrated into SRC SH2 (40 uM) in the cell, 25 C, MicroCal PEAQ-ITC Automated; SH2 domain pretreated with 0.1 mM PV (oxidised)
# [2] = target: human SRC SH2 domain (Gln147-Lys252) C188A (human) (UniProt P12931); experiment: ITC; peptide (400 uM) titrated into SRC SH2 (40 uM) in the cell, 25 C, MicroCal PEAQ-ITC Automated; SH2 domain pretreated with 1 mM TCEP (reducing conditions)
substance,measurement,setting,value
SRC C-terminal phosphopeptide (spanning pY530),fold lower affinity against reducing conditions,[1],3.5 fold
same,fold increase in affinity against SH2 WT,[2],5 fold
